# Assay results from US12528864 (GlaxoSmithKline, dated 2026).
# B1: 42Y073-86F08-66 (antibody)
# heavy: not shown
# light: DIQLTQSPSSLSASVGDRVTITCRASQSISSYLNWYQQKPGKAPKLLIYAASSLQSGVPSRFSGSGSGTDFTLTISSLQPEDFATYYCQQVLHTITFGGGTKVEIKRTVAAPSVFIFPPSDEQLKSGTASVVCLLNNFYPREAKVQWKVDNALQSGNSQESVTEQDSKDSTYSLSSTLTLSKADYEKHKVYACEVTHQGLSSPVTKSFNRGEC
# notes: also called GSK 6097608; GSK6097608
# Key:
# [1] = target: T1, human CD96v2 expressed on cells (CHO cells; transiently transfected HEK cells) (human, UniProt P40200-2 22-569); assay: flow cytometry on transiently transfected HEK cells (Human CD96v2)
# T1 construct: whole, on cells; the cell is named under assay; also called CHO-huCD96; hCD96v2
# T1 sequence (looked up): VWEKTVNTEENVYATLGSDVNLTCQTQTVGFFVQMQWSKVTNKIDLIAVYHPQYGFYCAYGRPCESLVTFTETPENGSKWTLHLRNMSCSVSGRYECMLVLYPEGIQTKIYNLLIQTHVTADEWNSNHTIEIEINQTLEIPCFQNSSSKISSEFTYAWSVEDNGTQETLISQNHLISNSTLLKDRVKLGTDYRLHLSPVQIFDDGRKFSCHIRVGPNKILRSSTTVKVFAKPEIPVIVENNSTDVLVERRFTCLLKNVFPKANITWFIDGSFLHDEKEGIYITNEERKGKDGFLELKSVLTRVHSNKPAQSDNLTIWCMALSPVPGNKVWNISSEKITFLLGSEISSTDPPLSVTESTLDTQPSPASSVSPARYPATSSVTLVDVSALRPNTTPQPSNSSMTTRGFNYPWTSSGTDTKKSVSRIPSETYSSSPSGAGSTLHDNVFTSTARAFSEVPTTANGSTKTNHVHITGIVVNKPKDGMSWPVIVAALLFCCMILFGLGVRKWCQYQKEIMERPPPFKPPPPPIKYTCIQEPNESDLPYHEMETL
# [2] = target: T2, cynomolgus monkey CD96v2 expressed on cells (CHO cells; transiently transfected HEK cells) (cynomolgus monkey, UniProt A0A2K5TWV6 22-569); assay: flow cytometry on transiently transfected HEK cells (Cyno CD96v2)
# T2 construct: the cell is named under assay; also called CHO-cyCD96; Cyno CD96v2
# T2 sequence: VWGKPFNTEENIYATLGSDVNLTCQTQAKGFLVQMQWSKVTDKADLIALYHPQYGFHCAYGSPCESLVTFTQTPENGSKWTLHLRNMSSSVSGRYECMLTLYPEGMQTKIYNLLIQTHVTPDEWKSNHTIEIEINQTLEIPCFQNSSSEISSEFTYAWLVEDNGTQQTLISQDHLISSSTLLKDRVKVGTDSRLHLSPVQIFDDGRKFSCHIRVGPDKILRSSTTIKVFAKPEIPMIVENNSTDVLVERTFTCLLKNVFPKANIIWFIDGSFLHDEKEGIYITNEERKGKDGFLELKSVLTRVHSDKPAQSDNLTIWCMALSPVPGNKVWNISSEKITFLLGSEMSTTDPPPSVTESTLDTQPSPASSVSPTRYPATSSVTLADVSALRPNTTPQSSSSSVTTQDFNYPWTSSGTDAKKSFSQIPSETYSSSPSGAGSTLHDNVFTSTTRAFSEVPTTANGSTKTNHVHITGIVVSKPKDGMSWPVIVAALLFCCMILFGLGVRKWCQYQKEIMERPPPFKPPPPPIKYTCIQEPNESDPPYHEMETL
# [3] = target: T3, recombinant cynomolgus monkey CD96v2 (cynomolgus monkey, UniProt A0A2K5TWV6 22-487, biotinylated (site not stated)); assay: MSD-SET solution equilibrium titration, antibody titrated against constant biotinylated CD96, free antigen detected
# T3 construct: Soluble recombinant protein used in MSD-SET; also called cynomolgus monkey biotinylated CD96 protein
# T3 sequence: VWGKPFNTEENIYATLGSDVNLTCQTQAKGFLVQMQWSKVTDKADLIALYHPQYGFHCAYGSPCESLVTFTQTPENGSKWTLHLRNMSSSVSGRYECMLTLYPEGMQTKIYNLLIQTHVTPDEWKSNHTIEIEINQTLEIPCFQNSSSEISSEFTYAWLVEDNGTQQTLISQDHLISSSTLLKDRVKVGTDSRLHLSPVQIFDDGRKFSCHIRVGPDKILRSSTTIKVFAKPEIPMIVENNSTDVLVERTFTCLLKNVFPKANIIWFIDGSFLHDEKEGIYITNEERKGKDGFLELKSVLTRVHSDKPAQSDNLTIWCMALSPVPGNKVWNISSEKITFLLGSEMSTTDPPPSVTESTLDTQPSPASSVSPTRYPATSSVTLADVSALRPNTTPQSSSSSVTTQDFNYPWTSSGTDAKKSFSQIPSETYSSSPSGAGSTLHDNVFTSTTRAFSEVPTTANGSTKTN
# [4] = target: T4, blood derived cynomolgus monkey CD96v2 on transiently transfected HEK cells (cynomolgus monkey); assay: flow cytometry on transiently transfected HEK cells (Cyno blood derived CD96v2)
# T4 construct: also called Blood derived Cyno CD96v2
# [5] = target: T1, human CD96v2 expressed on cells (CHO …); assay: flow cytometry, inhibition of human CD155-Fc-AF647 binding to CHO cells expressing human CD96v2; competitor CD155-Fc
# [6] = target: T5, cynomolgus monkey CD96, native, on primary cynomolgus monkey T cells (cynomolgus monkey, UniProt A0A2K5TWV6 22-569); assay: flow cytometry on activated cynomolgus monkey T cells, donor 2
# T5 construct: whole, on cells
# T5 sequence: T2 sequence
# [7] = target: T6, recombinant murine CD96v2 (mouse, UniProt Q3U0X8 22-536, limits assumed); assay: MSD-SET solution equilibrium titration, antibody titrated against constant CD96, free antigen detected
# T6 construct: Soluble recombinant protein used in MSD-SET; also called mouse CD96
# T6 sequence (looked up): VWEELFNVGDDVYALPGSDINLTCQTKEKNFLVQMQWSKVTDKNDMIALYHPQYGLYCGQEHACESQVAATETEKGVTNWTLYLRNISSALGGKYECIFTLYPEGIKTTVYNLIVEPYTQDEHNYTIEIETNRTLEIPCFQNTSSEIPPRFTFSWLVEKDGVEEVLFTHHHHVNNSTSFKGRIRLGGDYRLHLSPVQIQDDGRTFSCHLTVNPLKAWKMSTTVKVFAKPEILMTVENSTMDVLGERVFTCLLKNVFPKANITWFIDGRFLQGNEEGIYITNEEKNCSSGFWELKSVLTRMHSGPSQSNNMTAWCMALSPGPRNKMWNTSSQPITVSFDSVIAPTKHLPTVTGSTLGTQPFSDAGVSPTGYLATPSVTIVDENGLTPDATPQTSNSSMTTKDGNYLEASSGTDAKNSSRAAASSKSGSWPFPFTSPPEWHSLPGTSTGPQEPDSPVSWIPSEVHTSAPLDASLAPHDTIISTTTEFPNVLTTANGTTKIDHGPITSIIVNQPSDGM
# [8] = target: T4, blood derived cynomolgus monkey CD96v2 …; assay: flow cytometry on transiently transfected HEK cells; upper end of range, n = 3
# [9] = target: T7, cynomolgus monkey CD96v1 on transiently transfected HEK cells (cynomolgus monkey); assay: as above
# T7 construct: whole, on cells; also called Cyno CD96v1
binder,measurement,setting,value
B1,EC50 (read off the curve),[1],~5 nM
same,EC50 (read off the curve),[2],~10 nM
same,IC50 (read off the curve),[3],~0.4 nM
same,EC50 (read off the curve),[4],~5 nM
same,IC50,[5],1.55 nM
same,EC50 (read off the curve),[6],~0.1 nM
same,IC50 (read off the curve),[7],~0.5 nM
same,EC50,[8],10.2 nM
same,EC50,[9],12.3 nM
